# Test results: patent publication US8802681B2, “Pharmaceutical compositions with attenuated release of phenolic opioids” (Signature Therapeutics, Inc., priority 2008, dated 2014)
# B1: SBTI: trypsin inhibitor from Glycine max (soybean), Catalog No. 93620, ~10,000 units per mg, Sigma-Aldrich (protein, UniProt P01070 25-205, looked up)
# Trypsin inhibitor A: DFVLDNEGNPLENGGTYYILSDITAFGGIRAAPTGNERCPLTVVQSRNELDKGIGTIISSPYRIRFIAEGHPLSLKFDSFAVIMLCVGIPTEWSVVEDLPEGPAVKIGENKDAMDGWFRLERVSDDEFNNYKLVFCPQQAEDDKCGDIGISIDHDDGTRRLVVSKNKPLVVQFQKLDKESL
# B2: ovalbumin: Albumin from chicken egg white, Catalog No. A7641, Grade VII, Sigma-Aldrich; non-trypsin inhibitor protein control (protein, UniProt P01012 2-386, looked up)
# Ovalbumin: GSIGAASMEFCFDVFKELKVHHANENIFYCPIAIMSALAMVYLGAKDSTRTQINKVVRFDKLPGFGDSIEAQCGTSVNVHSSLRDILNQITKPNDVYSFSLASRLYAEERYPILPEYLQCVKELYRGGLEPINFQTAADQARELINSWVESQTNGIIRNVLQPSSVDSQTAMVLVNAIVFKGLWEKAFKDEDTQAMPFRVTEQESKPVQMMYQIGLFRVASMASEKMKILELPFASGTMSMLVLLPDEVSGLEQLESIINFEKLTEWTSSNVMEERKIKVYLPRMKMEEKYNLTSVLMAMGITDVFSSSANLSGISSAESLKISQAVHAAHAEINEAGREVVGSAEAGVDAASVSEEFRADHPFLFCIKHIATNAVLFFGRCVSP
# Key:
# [1] = Oral administration of Compound 4 and Compound 101 to rats, hydromorphone in plasma; assay type: in vivo, rat; details: Compound 4 20 mg/kg, Compound 101 10 mg/kg
# Experimental: Saline solutions of Compound 4 (which can be prepared as described in Example 13) and Compound 101 (prepared as described in Example 14) were dosed as indicated in Table 9.
# [2] = Oral administration of Compound 3 and Compound 101 to rats, hydromorphone in plasma; assay type: in vivo, rat; details: Compound 3 20 mg/kg, Compound 101 10 mg/kg
# Experimental: Saline solutions of Compound 3 (which can be prepared as described in Example 12) and Compound 101 (prepared as described in Example 14) were dosed as indicated in Table 8.
# [3] = Oral administration of Compound 1 and SBTI in the presence of ovalbumin to rats, hydromorphone in plasma; assay type: in vivo, rat; details: Compound 1 20 mg/kg
# Experimental: In an effort to understand the role of SBTI, ovalbumin was used as a non-trypsin inhibitor protein control. Albumin from chicken egg white (ovalbumin) (Catalog No. A7641, Grade VII, lyophilized powder, Sigma-Aldrich) was dissolved in saline.
# At specified time points, blood samples were drawn, harvested for plasma via centrifugation at 5,400 rpm at 4° C. for 5 min, and 100 microliters (μl) plasma transferred from each sample into a fresh tube containing 1 μl of formic acid. The tubes were vortexed for 5-10 seconds, immediately placed in dry ice and then stored until analysis by HPLC/MS.
# [4] = Oral administration of Compound 1 and SBTI to rats, hydromorphone in blood; assay type: in vivo, rat
# Experimental: At specified time points, blood samples were drawn, quenched into methanol, centrifuged at 14,000 rpm @ 4° C., and stored at −80° C. until analysis by high performance liquid chromatography/mass spectrometry (HPLC/MS).
# [5] = Oral administration of Compound 4 and SBTI to rats, hydromorphone in plasma; assay type: in vivo, rat; details: Compound 4 20 mg/kg, SBTI 500 mg/kg
# Experimental: Dosing, sampling and analysis procedures were as described in Example 4, except that Compound 4 without inhibitor was administered to 7 rats.
# trypsin = molecular target: T1, trypsin (Bos taurus, UniProt P00760); assay: Modified trypsin assay (in vitro IC50); assay type: biochemical; details: trypsin inhibition
# T1 sequence (P00760 24-246): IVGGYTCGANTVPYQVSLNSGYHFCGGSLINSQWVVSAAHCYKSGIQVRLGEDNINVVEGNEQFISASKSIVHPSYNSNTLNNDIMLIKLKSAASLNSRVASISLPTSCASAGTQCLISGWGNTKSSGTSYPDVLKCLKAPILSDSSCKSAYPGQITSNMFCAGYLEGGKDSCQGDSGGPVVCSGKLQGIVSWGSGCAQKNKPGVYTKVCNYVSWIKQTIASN
# [6] = Oral administration of Compound 2 and SBTI to rats, hydromorphone in plasma; assay type: in vivo, rat; details: Compound 2 20 mg/kg, SBTI 500 mg/kg
# Experimental: When SBTI was dosed, it was administered 5 min prior to Compound 4. At specified time points, blood samples were drawn, processed and analyzed as described in Example 2.
# [7] = Oral administration of Compound 3 and SBTI to rats, hydromorphone in plasma; assay type: in vivo, rat; details: Compound 3 20 mg/kg, SBTI 500 mg/kg
# Text: Dosing, sampling and analysis procedures were as described in Example 4.
molecule,measurement,setting,value
"CCOC(=O)N1CCN(C(=O)[C@H](CCCNC(=N)N)NS(=O)(=O)c2ccc3ccccc3c2)CC1 [Compound 101, (S)-ethyl 4-(5-guanidino-2-(naphthalene-2-sulfonamido)pentanoyl)piperazine-1-carboxylate]",Effect of Compound 101 on Compound 4's release of hydromorphone,[1],"attenuates Compound 4's ability to release hydromorphone, both with respect to suppressing Cmax and delaying Tmax"
same,Effect of Compound 101 on Compound 3's release of hydromorphone,[2],"attenuates Compound 3's ability to release hydromorphone, both with respect to suppressing Cmax and delaying Tmax"
B1,Effect of SBTI on Compound 1's release of hydromorphone,[3]; SBTI 500 mg/kg in the presence of 500 mg/kg ovalbumin,suppresses Cmax and delays Tmax
same,Effect of SBTI on Compound 1's release of hydromorphone,"[4]; Compound 1 20 mg/kg, SBTI 10-1000 mg/kg",attenuates Compound 1's ability to release hydromorphone in a dose-dependent manner
same,Attenuation of hydromorphone release from Compound 1,[4]; at higher SBTI concentrations,approximately 100%
same,Effect of SBTI on Compound 4's release of hydromorphone,[5],"attenuates Compound 4's ability to release hydromorphone, at least with respect to delaying Tmax"
same,IC50,trypsin,270 nM
same,Effect of SBTI on Compound 2's release of hydromorphone,[6],"attenuates Compound 2's ability to release hydromorphone, both with respect to suppressing Cmax and delaying Tmax"
same,Effect of SBTI on Compound 3's release of hydromorphone,[7],"attenuates Compound 3's ability to release hydromorphone, both with respect to suppressing Cmax and delaying Tmax"
B2,Effect of ovalbumin on Compound 1's release of hydromorphone,[3]; OVA 20-1000 mg/kg,does not significantly affect Compound 1's ability to release hydromorphone
